Experimental data taken from paper PMC12288907 (JCI Insight, 2025).

Key:
Assay in all cases: ELISA
Conditions in all cases: both partners purified
[1] = target: recombinant soluble trimeric H7 HA of A/Netherlands/219/2003 H7N7 (NL03 H7) (Influenza A virus …, UniProt Q6VMK1, strain)
[2] = target: recombinant soluble trimeric H15 HA of A/shearwater/Western Australia/2576/1979 H15N9 (wtWA79 H15) (Influenza A virus A/wedge-tailed …, UniProt Q20ND8, strain)
[3] = target: recombinant soluble trimeric H15 HA of A/shearwater/Western Australia/2576/1979 H15N9 (Influenza A virus A/wedge-tailed …, UniProt Q20ND8, strain)
[4] = target: recombinant soluble trimeric H7 HA of A/Netherlands/219/2003 H7N7 (Influenza A virus …, UniProt Q6VMK1, strain)

B1: recombinant H7-235 IgG1 (rH7-235 IgG1) (antibody, V domains shown)
VH: QVQLVESGGGVVQPGESLRLSCAASGFAFRTYGMHWVRQAPGKGLEWVGVIWYDGSNKYYGDSVKGRFTISRDNSQNTLYLQMNSLRAEDTAVYYCARNGERWRVEDYYYGMDVWGQGTLVTVSS
VL: EIVMTQSPLSLPVTPGEPASISCRSSQSLLHSNAHNYLDWYLQKPGQSPQLLIYLGSNRASGVPDRFSGSGSGTDFTLKISRVEAEDVGIYYCMQALQTPITFGQGTRLEIK
notes: IgG1; also called rH7-235 mAb; mAb H7-235; copies: 2 + 2
- binding result [1]: binds
- binding result [2]: no binding

B2: rH7-235 IgG1 (recombinant human monoclonal antibody H7-235) (antibody, V domains shown)
VH: QVQLVESGGGVVQPGESLRLSCAASGFAFRTYGMHWVRQAPGKGLEWVGVIWYDGSNKYYGDSVKGRFTISRDNSQNTLYLQMNSLRAEDTAVYYCARNGERWRVEDYYYGMDVWGQGTLVTVSS
VL: EIVMTQSPLSLPVTPGEPASISCRSSQSLLHSNAHNYLDWYLQKPGQSPQLLIYLGSNRASGVPDRFSGSGSGTDFTLKISRVEAEDVGIYYCMQALQTPITFGQGTRLEIK
notes: also called mAb H7-235; source: Expi293F, transient transfection, purified (MabSelect Sure)
- binding result [3]: no binding (tested: >10,000 ng/mL)

B3: rH7-235rev IgG1 (germline revertant form of rH7-235 IgG) (antibody, V domains shown)
VH: QVQLVESGGGVVQPGRSLRLSCAASGFTFSSYGMHWVRQAPGKGLEWVAVIWYDGSNKYYADSVKGRFTISRDNSKNTLYLQMNSLRAEDTAVYYCARNGERWRVEDYYYGMDVWGQGTLVTVSS
VL: not shown
- binding result [3]: no binding (tested: >10,000 ng/mL)
- binding result [4]: no binding (tested: >10,000 ng/mL)
